One block for each substance: values may come before it.
How the values were obtained:
Assay in all cases: SEC; HiLoad 26/60 Superdex 75 prep grade column; buffer B (20 mM MES, 50 mM NaCl, 10 mM CaCl2, pH 7.0); oligomeric state of each purified S100A4 protein in solution
[1] = biological target: S100A4 C-terminal Ca2+ binding site mutant N65I/D67A (UniProt P26447)
[2] = biological target: S100A4 N-terminal Ca2+-binding site mutant E23A/D25A (UniProt P26447)
[3] = biological target: recombinant wild-type S100A4 (UniProt P26447)

stoichiometry N [1]: 2
Substance: S100A4 C-terminal Ca2+ binding site mutant N65I/D67A (from UniProt P26447 1-101) (natural protein)

stoichiometry N [2]: 2
Substance: S100A4 N-terminal Ca2+-binding site mutant E23A/D25A (from UniProt P26447 1-101) (natural protein)

stoichiometry N [3]: 2
Substance: recombinant wild-type S100A4 (from UniProt P26447 1-101) (natural protein)
